Measurements from patent US7893021B2, “Parathyroid hormone antagonists and uses thereof” (Scantibodies Laboratory, Inc., priority 1999, dated 2011).
“And” between values parts separate entries of the source, which are not always exact repeats. Equal values may be shown once. “Also recorded” adds a separate entry of the source.

B1: hPTH 1-84: Synthetic human PTH 1-84, the whole 84 amino acid parathyroid hormone (SEQ ID NO:1), PTH agonist, purchased from Bachem (peptide)
chain: SVSEIQLMHNLGKHLNSMERVEWLRKKLQDVHNFVALGAPLAPRDAGSQRPRKKEDNVLVESHEKSLGEANKADVNVLTKAKSQ
B2: hPTH 7-84: Synthetic human PTH 7-84 fragment, an exemplary PTH antagonist, obtained from Bachem (peptide)
peptide: LMHNLGKHLNSMERVEWLRKKLQDVHNFVALGAPLAPRDAGSQRPRKKEDNVLVESHEKSLGEANKADVNVLTKAKSQ

Assays:
ROS/17.2 cells = test: cAMP production in osteoblastic cell line ROS/17.2; assay type: cell-based, rat; settings: for intracellular cAMP: 10^-8 mol/L peptide, five-minute incubation, N=6, before treatment 18.1±1.25
Experimental: Osteoblastic cell line. To compare the biological effects of the two peptides (HPTH 1-84 and 7-84), intracellular cAMP production was measured in the rate osteosarcoma cell line ROS/17.2, which has an osteoblastic phenotype and is known to increase cAMP production in response to PTH. Cells were cultured in Ham's F12 media containing 10% fetal bovine serum. Cells were plated out in 12 well plates at a density of 30,000 cells per well and grown to confluence. Cells were washed three times with KHMS buffer at 37° C. (KCI 4.0 mmol/L, CaCl2 1.25 mmol/L, MgSO4 1.25 mmol/L, KH2PO4 1.2 mmol/L, HEPES 10 mmol/L, NaCl 100 mmol/L, NaHCO3 37 mmol/L, and glucose 10 mmol/L, pH 7.5). cAMP production was measured using 500 μL of KHMS buffer (37°) containing isobutyl-1 methylxantine (1BMX) 1.0 mmol/L and various concentrations (10^−11 to 10^−8 mol/L) of hPTH 1-84 or hPTH 7-84. After a five-minute incubation, 100 μL of 1.8 mol/L pechloric acid were added. After an additional five-minute incubation at room temperature, 100 μL of 3 mol/KHCO3 were added to neutralize the acid. Samples were centrifuged at 3000 rpm for 15 minutes, and the supernatants were assayed for cAMP [26].

[1] = test system: Normal female Sprague-Dawley rats; test: Phosphaturic response (clearance studies: GFR and FEPO4) in rats; assay type: in vivo, rat; settings: for glomerular filtration rate (GFR), hPTH 7-84 given with hPTH 1-84: hPTH 7-84 given five minutes prior to hPTH 1-84, molar ratio 4:1, N=8, control period 2.1±0.1
Experimental: Phosphaturic response. Normal female Sprague-Dawley rats weighing 225 to 250 g were prepared for clearance studies under light anesthesia. Polyethylene catheters (PE50) were placed in the femoeral artery for the collection of blood and measurement of blood pressure (Blood Pressure Analyzer; Micro-Medic, Inc., Louisville, Ky., USA), in the femoral vein for infusion and in the bladder for the collection of urine. Rats were placed in Plexiglass holders and allowed to recover from the effect of the anesthetic for one hour. A priming dose (0.6 mL) of chemical inulin in saline was administered over a period of three minutes to achieve a plasma inulin level between […]. A solution of saline containing inulin to maintain this level and calcium gluconate to deliver 0.5 mg. calcium was infused at the rate of 0.03 mL/min. After equilibration, a total of four 30-minute urine collections was obtained.
To assess the effect of hPTH 1-84 on phosphate excretion, urine was collected during two control periods, after which rats received a priming bolus of 1.8 μg of HPTH 1-84 followed by a sustained infusion that delivered a total of 8.2 μg of I-PTH. After an equilibration period of 20 minutes, two 30-minute urine collections were obtained. In competition experiments, HPTH 7-84 was given five minutes prior to hPTH 1-84 at a molar ratio of 4:1.
Blood samples and blood pressure measurements were recorded at the beginning and end of the baseline period, at the beginning of the PTH infusion period, and at the end of the study. The concentration of inulin in plasma and urine was determined by the method of Führ, Kaczmarczyk, and Kruttgen, Klin Wochenschr, 33:729-730 (1955). The estimation of the glomerular filtration rate (GFR) by inulin clearance and the calculation of the fractional urinary excretion rate of phosphorus (FEP04) were performed in the standard fashion. Blood samples were centrifuged, and plasma phosphorus and calcium concentrations were measured.

[2] = test system: rats having hypoparathyroidism (parathyroid glands removed); test: Serum calcium after i.v. injection in rats with parathyroid glands removed; assay type: in vivo, rat
From the text: The CAP rebound effect is believed to be the body's response to an administration of CIP. This response occurs when the parathyroid gland cells secrete CAP in an effort to return the CAP/CIP ratio to homeostasis with the pre-CIP administration levels. PTH antagonist administration is not accompanied by hypercalcemia and osteosarcoma, as with direct CAP administration. […] All of the rats had their parathyroid glands removed. Five rats received an i.v. injection of a saline control. The serum calcium of the control rats was measured and on average was lowered over time by about 0.18 mg/dl by virtue of a parathyroidectomy. Nine rats received an i.v. injection (10 μg/kg) of hPTH obtained from Bachem, AG of Bubendorf, Switzerland. The serum calcium of the hPTH rats was measured and on average was raised over time by about 0.65 mg/dl. Five rats received an equimolar i.v. injection of a PTH7-84 (an exemplary PTH antagonist) also obtained from Bachem, AG of Bubendorf, Switzerland. The serum calcium of the PTH antagonist rats was measured and on average was lowered over time by about 0.30 mg/dl. Finally, six rats received an i.v. injection comprised of hPTH (10 μg/kg) and an equimolar amount of PTH antagonist PTH7-84. The serum calcium of the hPTH/PTH antagonist rats was measured and on average remained substantially the same over time, raising only about 0.03 mg/dl.

[3] = test system: parathyroidectomized (PTX) rats; test: Calcemic response in parathyroidectomized (PTX) rats fed a 0.02% calcium diet; assay type: in vivo, rat; settings: hPTH 7-84 given 10 minutes prior to each hPTH 1-84 injection, 1:1 molar ratio, N=6
Experimental: Calcemic response. Normal female Sprague-Dawley rats weighing 225 to 250 g (Harlan, Indianapolis, Ind., USA) were parathyroidectomized (PTX) and fed a 0.02% calcium diet. Rats with a plasma calcium below 7.0 mg/dL after overnight fasting were included in the study. A 20 μg dose of hPTH 1-84 or 7-84 was given intraperitoneally to PTX rats in four doses of 5 μg each at 30-minute intervals (0, 30, 60, and 90 minutes). For control studies, the rats received vehicle (saline solution) alone. Blood was drawn via the tail at 0, 60, 90, and 120 minutes. For competition experiments, rats received an injection of hPTH 7-84 10 minutes prior to each injection of hPTH 1-84. The molar ratio of hPTH 7-84:hPTH 1-84 was 1:1.
Total plasma calcium levels were determined using an atomic absorption spectrophotometer (model 110B; Perkin Elmer, Norwalk, Conn., USA). Plasma phosphorus levels were determined using an autoanalyzer (COBAS MIRA Plus; Roche, Newark, N.J., USA).

Molecule | intracellular cAMP (ROS/17.2 cells) | cAMP production, dose dependence (ROS/17.2 cells; 10^-11 to 10^-8 mol/L peptide) | glomerular filtration rate (GFR) ([1]; rats infused with hPTH 1-84 alone, N=10, control period 1.8±0.3) [mL/min] | fractional excretion of phosphate (FEP04) ([1]; rats infused with hPTH 1-84 alone, N=10, control period 11.9±2.4) [%] | serum calcium raised over time (average) ([2]; i.v. injection 10 μg/kg hPTH alone, nine rats, saline control lowered about 0.18) | decrease of the increase in FEP04 (phosphaturia) induced by hPTH 1-84 ([1]; hPTH 7-84 coadministered with hPTH 1-84, molar ratio 4:1) [%] | glomerular filtration rate (GFR), hPTH 7-84 given with hPTH 1-84 [1] [mL/min] | glomerular filtration rate (GFR), hPTH 7-84 given with hPTH 1-84 ([1]; listed as 7-84 PTH) | decrease of the calcemic response induced by hPTH 1-84 [3] [%] | serum calcium lowered over time (average) ([2]; i.v. injection of PTH7-84 alone, equimolar to 10 μg/kg hPTH, five rats, saline control lowered about 0.18) | serum calcium raised over time (average), co-injection with hPTH ([2]; i.v. injection of hPTH (10 μg/kg) and an equimolar amount of PTH7-84, six rats) | antagonist property compared with PTH3-34 ([2]; prevention of the hPTH-induced serum calcium increase in rats)
B1 | 738±4.13 nmol/well and 738±4.1 nmol/well | increased cAMP production in a does-dependent manner; also recorded: increased cAMP production in a dose-dependent manner | 1.8 ± 0.1 | 27.7±2.4 | about 0.65 mg/dl | – | – | – | – | – | – | –
B2 | no effect | – | – | – | – | 50.2 | 2.6 ± 0.2 | significant increase | 94 | about 0.30 mg/dl | about 0.03 mg/dl | much more potent in its antagonist property than the previously reported antagonist PTH3-34
